This is an account of results in the supplement of paper PMC10567573.

B1: WSB1 (parent)
chain: DLKDDGNMMKVLRGHQNWVYSCAF
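Further: lentivirally expressed fusions sorted by FACS into six bins by GFP to DsRed ratio, PSI derived from sequencing read proportions per bin multiplied by bin number.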

In this data set the parent is B1. Kind of data set: protein stability index of a GFP-peptide fusion (GPS, HEK-293T) (PSI 1-6); higher = more stable. Conditions: c terminus: a fixed tail appended.
On to DLKDDGNMMKVLMGHQNWVYSCAF, for which the protein stability index is 2.28.
Consider DLKDDGNMMKVLNGHQNWVYSCAF, for which the protein stability index was 2.74.
The same measure for DLKDDGNMMKVLYGHQNWVYSCAF: 2.46.
Consider DLKDDGNMMKVLHGHQNWVYSCAF, for which the protein stability index stood at 1.46.
Then DLKDDGNMMKVLDGHQNWVYSCAF, with 1.32; and DLKDDGNMMKVLPGHQNWVYSCAF, with 2.02; and DLKDDGNMMKVLTGHQNWVYSCAF, with 2.21.
For the variant DLKDDGNMMKVLWGHQNWVYSCAF, the protein stability index is 3.05.
DLKDDGNMMKVLFGHQNWVYSCAF: the protein stability index stood at 1.92.
As to DLKDDGNMMKVLAGHQNWVYSCAF, the protein stability index was 1.73.
The same measure for DLKDDGNMMKVLSGHQNWVYSCAF: 1.53.
Then DLKDDGNMMKVLEGHQNWVYSCAF, with 2.88; and DLKDDGNMMKVLKGHQNWVYSCAF, with 1.58.
As to DLKDDGNMMKVKRGHQNWVYSCAF, the protein stability index worked out at 1.85.
DLKDDGNMMKVQRGHQNWVYSCAF: the protein stability index was 1.16.
Then DLKDDGNMMKVYRGHQNWVYSCAF, with 2.74.
For DLKDDGNMMKVMRGHQNWVYSCAF, the protein stability index stood at 1.24.
Take DLKDDGNMMKVTRGHQNWVYSCAF: the protein stability index was 1.37.
Then DLKDDGNMMKVRRGHQNWVYSCAF, with 3.69; and DLKDDGNMMKVWRGHQNWVYSCAF, with 2.38.
Take DLKDDGNMMKVIRGHQNWVYSCAF: the protein stability index came to 1.49.
On to DLKDDGNMMKVGRGHQNWVYSCAF, for which the protein stability index was 1.91.
Then DLKDDGNMMKVERGHQNWVYSCAF, with 2.27.
On to DLKDDGNMMKVFRGHQNWVYSCAF, for which the protein stability index came out at 1.67.
Regarding DLKDDGNMMKVDRGHQNWVYSCAF, the protein stability index is 2.01.
Consider DLKDDGNMMKVPRGHQNWVYSCAF, for which the protein stability index is 2.2.
For the variant DLKDDGNMMKVCRGHQNWVYSCAF, the protein stability index worked out at 2.38.
In the case of DLKDDGNMMKVHRGHQNWVYSCAF, the protein stability index came to 1.44.
Consider DLKDDGNMMKVNRGHQNWVYSCAF, for which the protein stability index was 1.5.
Consider DLKDDGNMMKVLRGHDNWVYSCAF, for which the protein stability index came to 1.71.
DLKDDGNMMKVLRGHCNWVYSCAF: the protein stability index was determined as 2.3.
For the variant DLKDDGNMMKVLRGHANWVYSCAF, the protein stability index worked out at 2.32.
Consider DLKDRGNMMKVLRGHQNWVYSCAF, for which the protein stability index came to 3.41.
The same measure for DLKDPGNMMKVLRGHQNWVYSCAF: 3.34.
Regarding DLKDQGNMMKVLRGHQNWVYSCAF, the protein stability index came to 2.
As for DLKDNGNMMKVLRGHQNWVYSCAF, the protein stability index stood at 2.04.
With DLKDEGNMMKVLRGHQNWVYSCAF, the protein stability index was 1.96.
In the case of DLKDMGNMMKVLRGHQNWVYSCAF, the protein stability index amounted to 3.35.
In the case of DLKDTGNMMKVLRGHQNWVYSCAF, the protein stability index was determined as 3.18.
For the variant DLKDFGNMMKVLRGHQNWVYSCAF, the protein stability index turned out to be 3.73.
Then DLKDYGNMMKVLRGHQNWVYSCAF, with 2.25.
On to DLKDAGNMMKVLRGHQNWVYSCAF, for which the protein stability index stood at 2.66.
DLKDIGNMMKVLRGHQNWVYSCAF: the protein stability index was determined as 2.12.
With DLKDKGNMMKVLRGHQNWVYSCAF, the protein stability index stood at 1.69.
Take DLKDHGNMMKVLRGHQNWVYSCAF: the protein stability index was 1.86.
As to DLKDGGNMMKVLRGHQNWVYSCAF, the protein stability index was 1.68.
For the variant DLKDDGNMRKVLRGHQNWVYSCAF, the protein stability index came to 1.54.
Consider DLKDDGNMAKVLRGHQNWVYSCAF, for which the protein stability index was 2.02.
Regarding DLKDDGNMSKVLRGHQNWVYSCAF, the protein stability index stood at 1.43.
The same measure for DLKDDGNMNKVLRGHQNWVYSCAF: 1.89.
For DLKDDGNMKKVLRGHQNWVYSCAF, the protein stability index was 1.95.
The same measure for DLKDDGNMFKVLRGHQNWVYSCAF: 2.67.
Then DLKDDGNMLKVLRGHQNWVYSCAF, with 1.61.
For DLKDDGNMVKVLRGHQNWVYSCAF, the protein stability index was determined as 1.27.
For the variant DLKDDGNMHKVLRGHQNWVYSCAF, the protein stability index is 2.19.
On to DLKDDGNMTKVLRGHQNWVYSCAF, for which the protein stability index worked out at 1.45.
Regarding DLKDDGNMEKVLRGHQNWVYSCAF, the protein stability index worked out at 2.03.
For the variant DLKDDGNMIKVLRGHQNWVYSCAF, the protein stability index stood at 4.37.
Consider DLKDDGNMQKVLRGHQNWVYSCAF, for which the protein stability index was found to be 1.73.
Then DLKDDGNMYKVLRGHQNWVYSCAF, with 1.06; and DLKDDGNMDKVLRGHQNWVYSCAF, with 1.88.
For the variant DLKDDGNMMKNLRGHQNWVYSCAF, the protein stability index is 1.57.
For the variant DLKDDGNMMKSLRGHQNWVYSCAF, the protein stability index came out at 2.79.
Regarding DLKDDGNMMKWLRGHQNWVYSCAF, the protein stability index came out at 2.
As for DLKDDGNMMKMLRGHQNWVYSCAF, the protein stability index came out at 2.
For DLKDDGNMMKALRGHQNWVYSCAF, the protein stability index came out at 1.75.
For DLKDDGNMMKGLRGHQNWVYSCAF, the protein stability index is 1.65.
As to DLKDDGNMMKFLRGHQNWVYSCAF, the protein stability index was 2.64.
The same measure for DLKDDGNMMKPLRGHQNWVYSCAF: 2.31.
As to DLKDDGNMMKKLRGHQNWVYSCAF, the protein stability index was found to be 1.57.
Then DLKDDGNMMKYLRGHQNWVYSCAF, with 2.26.
Turning to DLKDDGNMMKQLRGHQNWVYSCAF, the protein stability index was 2.62.
Take DLKDDGNMMKRLRGHQNWVYSCAF: the protein stability index was found to be 1.69.
The same measure for DLKDDGNMMKDLRGHQNWVYSCAF: 1.93.
On to DLKDDGNMMKTLRGHQNWVYSCAF, for which the protein stability index amounted to 2.41.
Then DLKDDGNMMKELRGHQNWVYSCAF, with 2.01; and DLKDDGNMMKLLRGHQNWVYSCAF, with 1.63; and DLKDDGNMMKILRGHQNWVYSCAF, with 1.59.
DLKDDNNMMKVLRGHQNWVYSCAF: the protein stability index was determined as 2.12.
For DLKDDWNMMKVLRGHQNWVYSCAF, the protein stability index came to 3.64.
The same measure for DLKDDENMMKVLRGHQNWVYSCAF: 2.38.
For the variant DLKDDQNMMKVLRGHQNWVYSCAF, the protein stability index was 1.58.
Then DLKDDANMMKVLRGHQNWVYSCAF, with 2.03; and DLKDDYNMMKVLRGHQNWVYSCAF, with 1.77.
Take DLKDDPNMMKVLRGHQNWVYSCAF: the protein stability index came out at 2.28.
On to DLKDDCNMMKVLRGHQNWVYSCAF, for which the protein stability index was 2.17.
The same measure for DLKDDSNMMKVLRGHQNWVYSCAF: 1.92.
With DLKDDLNMMKVLRGHQNWVYSCAF, the protein stability index came out at 1.13.
For DLKDDRNMMKVLRGHQNWVYSCAF, the protein stability index stood at 1.62.
In the case of DLKDDDNMMKVLRGHQNWVYSCAF, the protein stability index came out at 1.94.
As for DLKDDKNMMKVLRGHQNWVYSCAF, the protein stability index came out at 1.75.
DLKDDINMMKVLRGHQNWVYSCAF: the protein stability index was 2.23.
Regarding DLKDDVNMMKVLRGHQNWVYSCAF, the protein stability index was found to be 1.74.
As for DLKDDMNMMKVLRGHQNWVYSCAF, the protein stability index was found to be 1.72.
